T1: SP3 (Dof15) (Oryza sativa)
T1 chain: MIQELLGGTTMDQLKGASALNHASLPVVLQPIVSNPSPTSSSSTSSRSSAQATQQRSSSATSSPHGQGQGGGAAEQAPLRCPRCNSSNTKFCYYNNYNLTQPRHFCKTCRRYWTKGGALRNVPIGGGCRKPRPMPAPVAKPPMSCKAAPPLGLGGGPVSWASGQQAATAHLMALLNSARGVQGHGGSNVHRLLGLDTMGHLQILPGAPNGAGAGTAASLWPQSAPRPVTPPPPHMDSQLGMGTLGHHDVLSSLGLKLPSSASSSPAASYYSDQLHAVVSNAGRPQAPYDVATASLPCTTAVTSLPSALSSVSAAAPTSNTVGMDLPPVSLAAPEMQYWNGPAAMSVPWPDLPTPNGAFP

T2: DEP1 (Oryza sativa, UniProt Q67UU9 1-426)
T2 sequence: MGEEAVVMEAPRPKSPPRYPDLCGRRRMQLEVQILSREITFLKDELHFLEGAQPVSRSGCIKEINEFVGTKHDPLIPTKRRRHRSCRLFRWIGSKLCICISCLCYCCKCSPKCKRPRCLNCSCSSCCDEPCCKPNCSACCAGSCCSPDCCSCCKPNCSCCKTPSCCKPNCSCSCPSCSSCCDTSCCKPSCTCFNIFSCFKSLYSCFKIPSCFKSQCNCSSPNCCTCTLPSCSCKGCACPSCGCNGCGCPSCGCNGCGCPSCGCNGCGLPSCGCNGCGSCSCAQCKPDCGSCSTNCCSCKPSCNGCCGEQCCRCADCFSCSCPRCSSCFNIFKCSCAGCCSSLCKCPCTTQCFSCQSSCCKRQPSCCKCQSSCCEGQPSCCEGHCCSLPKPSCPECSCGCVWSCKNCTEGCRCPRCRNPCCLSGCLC


How the values were obtained:
[1] = target: FLAG-DEP1 (rice (Oryza sativa)) (UniProt Q67UU9)
SP3 (Dof15) = target: T1, SP3 (Dof15); experiment: EMSA; LightShift Chemiluminescent EMSA Kit (Thermo), manufacturer's instructions; buffer, salt, pH and temperature not stated; details: protein: recombinant; tags: GST (pGEX-6p); label: biotin; blunt
DEP1 = target: T2, DEP1; experiment: as above; details: protein: recombinant; tags: MBP; label: biotin; blunt

share of DEP1-GFP signals localised to the nucleus in rice protoplasts: 16% without SP3, 76% with SP3-HA co-expressed [1] [%] | Molecule | binding result (SP3 (Dof15)) | binding result (DEP1)
76 | HA-SP3 (natural protein) | – | –
– | Bio-Probe (APO2 promoter) (dsDNA) DNA 1: ACGCATGCAGGAGTATCTTTTTTCTTCGGAAGAGGAACAGTGAC DNA 2: GTCACTGTTCCTCTTCCGAAGAAAAAAGATACTCCTGCATGCGT | binds | no binding

— PMC12667520, “SP3 and DEP1 Orchestrate Panicle Architecture by Jointly Regulating APO2 Expression in Rice”
